Laboratory results as given in the supplement of paper PMC10126150.
± gives the standard deviation of the averaged measurements.

Tested on: ATP
Experiment: switch fluorescence ratio, 500 uM ATP over buffer (Cy3 cluster intensity, sum of 5 cycles each) (fold (ratio)); higher = stronger signal-on switching upon ATP binding; sequences stand for … in TCGTCGGCAGCGTCAGATGTGTATAAGAGACAGTTTTTTTTTTTTTTTTTTTTTTTTT…TC
Details: aptamer strand: ATP DNA aptamer (quencher-CACCTGGGGGAGTATTGCGGAGGAAGG + anchor), 100 nM annealed; ATP concentration: 500 uM
Method in brief: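 Imaging in selection buffer was followed by imaging after 15 min with 500 uM ATP at 22 °C, for Cy3-labelled switching-strand clusters annealed to 100 nM quencher-labelled ATP aptamer on a modified Illumina MiSeq flow-cell. Five of these buffer/ATP cycles ran, separated by NaOH stripping and re-annealing. The fluorescence ratio per cluster is summed target-cycle over summed buffer-cycle Cy3 intensity, averaged per switch-domain sequence; clusters outside 100-1000 RFU were removed.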
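Also: ATP exposure 15 min at 22 °C before imaging.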

TGACTGCTGG and TCACACAGGC are within error of each other in switch fluorescence ratio: 1.01 ± 0.027 for the first, 1.08 ± 0.16 for the second.

TTTGGAGGAG and TAAAAAGGGC are within error of each other in switch fluorescence ratio: 0.997 ± 0.048 for the first, 0.992 ± 0.057 for the second.

TAAGGGTTAT and TTACATATGT are within error of each other in switch fluorescence ratio: 0.978 ± 0.023 for the first, 1.02 ± 0.021 for the second.

First: AGGCCGTCGT
Second: AACCGTTGGT
The switch fluorescence ratio of the first is higher: 1.043 ± 0.0064 for the first, 1.01 ± 0.014 for the second.

ATGTTCGACA and ACCCTGGACA are within error of each other in switch fluorescence ratio: 0.965 ± 0.027 for the first, 1.01 ± 0.019 for the second.

TATCGAGTTT and GTGTTTTAGG are within error of each other in switch fluorescence ratio: 1 ± 0.038 for the first, 0.96 ± 0.032 for the second.

TACTATTTTC and CGTTGGGCTG are within error of each other in switch fluorescence ratio: 0.984 ± 0.042 for the first, 1.02 ± 0.038 for the second.

First: TTTTCGGCTT
Second: TGAGTTGGCT
The switch fluorescence ratio of the first is lower: 0.965 ± 0.031 for the first, 1.02 ± 0.014 for the second.

TTGTCCAGGA and TTTCCTTTT are within error of each other in switch fluorescence ratio: 0.977 ± 0.048 for the first, 1.014 ± 0.0083 for the second.

GAGTGTCCGG and CATTGTCTTC are within error of each other in switch fluorescence ratio: 0.982 ± 0.025 for the first, 1.05 ± 0.055 for the second.

GGGTTTTATT and GTAAGGGGTC are within error of each other in switch fluorescence ratio: 0.981 ± 0.036 for the first, 1 ± 0.028 for the second.

Compared with GGATGATGCC, GCTTGGTGTC is higher in switch fluorescence ratio: 0.986 ± 0.033 for the first, 1.05 ± 0.014 for the second.

TAAGAGGCCA and TGTGCCAGGG are within error of each other in switch fluorescence ratio: 1.02 ± 0.017 for the first, 1.06 ± 0.024 for the second.

Going from CGAAAATATC to GACCTTTGAG, the switch fluorescence ratio rises from 0.989 ± 0.023 to 1.017 ± 0.0045.

GGGGCGGATG and GATTGGTTAT are within error of each other in switch fluorescence ratio: 0.968 ± 0.013 for the first, 0.962 ± 0.029 for the second.

Going from GATTACAGGG to GGCTACCTTG, the switch fluorescence ratio rises from 0.957 ± 0.038 to 1.047 ± 0.0038.

Compared with GGGTAAGGTG, AAGGGATTTA is lower in switch fluorescence ratio: 1.3 ± 0.091 for the first, 1.04 ± 0.034 for the second.

CCGGGGGCTA and GATTCGGGGT are within error of each other in switch fluorescence ratio: 2.69 ± 1.9 for the first, 1 ± 0.017 for the second.

First: ATTAGGCAAT
Second: TGATGAGTCT
The switch fluorescence ratio of the first is higher: 1.22 ± 0.061 for the first, 1.03 ± 0.062 for the second.

First: AGTCGGGAGG
Second: GAGGCAGAAT
The switch fluorescence ratio of the first is lower: 0.945 ± 0.062 for the first, 1.03 ± 0.012 for the second.

Compared with TTCAAAGGTG, GATTTGTGCA is lower in switch fluorescence ratio: 1.41 ± 0.16 for the first, 0.9952 ± 0.0014 for the second.

First: ATAATAGGGA
Second: GGTACAGGGC
The switch fluorescence ratio of the first is lower: 0.982 ± 0.014 for the first, 1.065 ± 0.0073 for the second.

CACTTTGGGG and TAAAGGGTTG are within error of each other in switch fluorescence ratio: 0.971 ± 0.0062 for the first, 1.02 ± 0.065 for the second.

TAATAGTAAT and GGAGTAGGTA are within error of each other in switch fluorescence ratio: 1.02 ± 0.011 for the first, 1 ± 0.031 for the second.

TTTGAACTTT and GGGTTAAGTT are within error of each other in switch fluorescence ratio: 0.991 ± 0.033 for the first, 1 ± 0.027 for the second.

GGCGGTTTGT and AGCACAAAAA are within error of each other in switch fluorescence ratio: 1 ± 0.028 for the first, 1.12 ± 0.096 for the second.

Compared with GAAGTTTTTT, AATATGCTCC is higher in switch fluorescence ratio: 1.002 ± 0.0036 for the first, 1.14 ± 0.064 for the second.

ACGGTGTATT and CCTTGTGGGA are within error of each other in switch fluorescence ratio: 0.998 ± 0.037 for the first, 0.983 ± 0.011 for the second.

GCAGAGGGGG and GGGGCGCCTC are within error of each other in switch fluorescence ratio: 1.04 ± 0.029 for the first, 0.992 ± 0.03 for the second.

Going from ACTTGGTTGT to TGGGTGCGCA, the switch fluorescence ratio rises from 0.992 ± 0.013 to 1.03 ± 0.025.

Going from GGTGAGGGTA to GTGTAAGAAC, the switch fluorescence ratio rises from 0.991 ± 0.012 to 1.016 ± 0.0048.

Going from TAAGTTTTTT to CGAATGGGAC, the switch fluorescence ratio rises from 0.99 ± 0.02 to 1.042 ± 0.007.

Going from TGGCTTGGTA to ATCCGTGATG, the switch fluorescence ratio rises from 1 ± 0.02 to 1.11 ± 0.051.

First: GAGGAAATGG
Second: TCGGAGGTCA
The switch fluorescence ratio of the first is higher: 1.024 ± 0.0046 for the first, 0.956 ± 0.03 for the second.

Going from GAGGTGTTCA to GGCGGGGGCG, the switch fluorescence ratio rises from 1.01 ± 0.02 to 1.07 ± 0.024.

Going from GGGCACCAGG to CATACAATGC, the switch fluorescence ratio rises from 1.21 ± 0.03 to 2.02 ± 0.11.

CACTGGCCGA and GAATGGCGG are within error of each other in switch fluorescence ratio: 1.035 ± 0.01 for the first, 0.998 ± 0.041 for the second.

TGGGGGAGAT and AAACGCCATT are within error of each other in switch fluorescence ratio: 1.04 ± 0.1 for the first, 1.13 ± 0.018 for the second.

AAATGTCTAA and CTGATGTACG are within error of each other in switch fluorescence ratio: 1 ± 0.019 for the first, 1.06 ± 0.12 for the second.

CAGCCTTATT and CTTGTGTGGT are within error of each other in switch fluorescence ratio: 0.997 ± 0.029 for the first, 1.02 ± 0.014 for the second.

Compared with TTTATTTGCT, TTTCGCAGAA is higher in switch fluorescence ratio: 0.9809 ± 0.0098 for the first, 1.1 ± 0.1 for the second.

ACCTTGAGAG and ATAAGGGGTT are within error of each other in switch fluorescence ratio: 1 ± 0.011 for the first, 0.993 ± 0.039 for the second.

CCTTGTTTTT and TCTAAGGGGA are within error of each other in switch fluorescence ratio: 1.01 ± 0.01 for the first, 1.06 ± 0.11 for the second.

TCGCTGGGAT and TAAACAGTTC are within error of each other in switch fluorescence ratio: 1.2 ± 0.27 for the first, 1.05 ± 0.073 for the second.

First: TTGAGCTTCA
Second: ATAGCGGGGG
The switch fluorescence ratio of the first is higher: 1.115 ± 0.0063 for the first, 0.998 ± 0.031 for the second.

GCACAAGTTG and TCACTATATT are within error of each other in switch fluorescence ratio: 1.02 ± 0.019 for the first, 1.08 ± 0.045 for the second.

CGGGTGGGTG and GCGATTGTGT are within error of each other in switch fluorescence ratio: 1.01 ± 0.013 for the first, 1.002 ± 0.0055 for the second.

AGTTAGTCTG and TGGTAAAGGC are within error of each other in switch fluorescence ratio: 1.01 ± 0.04 for the first, 0.979 ± 0.042 for the second.

TGTCTCCCTT and TGAATTTAGC are within error of each other in switch fluorescence ratio: 1.007 ± 0.0074 for the first, 1 ± 0.035 for the second.

TAGGGGTAGT and TGTTTCATTT are within error of each other in switch fluorescence ratio: 1.01 ± 0.033 for the first, 0.989 ± 0.016 for the second.

TTTTTGCCAC and TGGGGTGAGG are the same in switch fluorescence ratio: 1 ± 0.043 for the first, 1 ± 0.035 for the second.

AAGTTTAGGG and TTCAATGGGC are within error of each other in switch fluorescence ratio: 0.996 ± 0.027 for the first, 0.998 ± 0.064 for the second.

Going from TAACCAGTGG to CTTATATCTT, the switch fluorescence ratio falls from 1.07 ± 0.021 to 0.993 ± 0.025.

First: ATATATGTCG
Second: TAGAGGCGTT
The switch fluorescence ratio of the first is higher: 1.07 ± 0.049 for the first, 0.986 ± 0.012 for the second.

Going from CGAGCCAGAT to ATGAGGTTTC, the switch fluorescence ratio falls from 1.04 ± 0.028 to 0.989 ± 0.016.

TGCGGTGTCG and ATGGGCCCT are within error of each other in switch fluorescence ratio: 1.06 ± 0.083 for the first, 0.997 ± 0.031 for the second.

AATCTATATT and AGTGCTGTTC are within error of each other in switch fluorescence ratio: 1.01 ± 0.025 for the first, 0.929 ± 0.082 for the second.

TATTTGAAAT and CCTTGGGGAA are within error of each other in switch fluorescence ratio: 1.01 ± 0.039 for the first, 0.98 ± 0.013 for the second.

Compared with TAATTGGGTC, GGAAGGTGGT is lower in switch fluorescence ratio: 1.024 ± 0.0024 for the first, 0.987 ± 0.024 for the second.

TGATATTGAG and TTTTTCCGTT are within error of each other in switch fluorescence ratio: 1 ± 0.045 for the first, 1.12 ± 0.27 for the second.

CTTGATGCGA and GGCGTAAAGT are within error of each other in switch fluorescence ratio: 1.032 ± 0.0045 for the first, 1.02 ± 0.036 for the second.

GGTTGGACCA and AGAACGAAGG are within error of each other in switch fluorescence ratio: 0.9602 ± 0.0032 for the first, 0.962 ± 0.015 for the second.

GCTTTTTTGG and ACGGATTTGG are within error of each other in switch fluorescence ratio: 0.994 ± 0.025 for the first, 0.9926 ± 0.0095 for the second.

ATTTTTGAGC and ATCGGTCCTT are within error of each other in switch fluorescence ratio: 1.04 ± 0.048 for the first, 1.03 ± 0.027 for the second.

GATTTGCAGA and TAATAGACGG are the same in switch fluorescence ratio: 1 ± 0.024 for the first, 1 ± 0.026 for the second.

TGCGACGAGG and TTATCGTTTG are within error of each other in switch fluorescence ratio: 1.04 ± 0.0011 for the first, 1.02 ± 0.043 for the second.

TATGATATCC and ATTCATTTAG are within error of each other in switch fluorescence ratio: 0.9783 ± 0.0089 for the first, 0.996 ± 0.013 for the second.

GCACTGGTGG and ATGGGGTACA are within error of each other in switch fluorescence ratio: 1.02 ± 0.032 for the first, 1.033 ± 0.0032 for the second.

AGCTGAGTAG and CTTAGCGGGA are within error of each other in switch fluorescence ratio: 0.997 ± 0.035 for the first, 1.02 ± 0.025 for the second.

TGTGGCCCAC and CTCGTTGCGG are within error of each other in switch fluorescence ratio: 0.989 ± 0.017 for the first, 1.06 ± 0.07 for the second.

GGTGGTAGGA and TCAGGCATTG are within error of each other in switch fluorescence ratio: 0.98 ± 0.041 for the first, 0.979 ± 0.018 for the second.

Compared with TCGCAGCAGG, TTGGAATGGG is lower in switch fluorescence ratio: 2.82 ± 0.097 for the first, 1 ± 0.026 for the second.

First: TTTTGAAATC
Second: ATACGTTATT
The switch fluorescence ratio of the first is lower: 1.004 ± 0.0061 for the first, 1.21 ± 0.057 for the second.

Compared with ACAGTACTTT, TTTTGGGTG is lower in switch fluorescence ratio: 1.26 ± 0.019 for the first, 1.04 ± 0.04 for the second.

TGGTTGCTTG and ATGACAGCGG are the same in switch fluorescence ratio: 1.01 ± 0.034 for the first, 1.01 ± 0.11 for the second.

GTTTCGCGA and AGGGTTACGC are within error of each other in switch fluorescence ratio: 1.14 ± 0.041 for the first, 1.04 ± 0.11 for the second.

Compared with GCAAGTCTGA, TATTAGTACT is lower in switch fluorescence ratio: 1.03 ± 0.019 for the first, 0.989 ± 0.011 for the second.

TTACGGGCGG and ACTTTTTTTA are within error of each other in switch fluorescence ratio: 1.03 ± 0.078 for the first, 1.022 ± 0.01 for the second.

With TAAGTACGGC the switch fluorescence ratio was 1.31 ± 0.02.
